Measurements from publication PMC9130954.

Columns and labels:
[1] = molecular target: Photosystem I (PSI) complex from Anabaena sp. PCC 7120, the monomeric unit of the PSI oligomers (Anabaena sp. PCC 7120 (endogenous)) (UniProt P58576); assay: negative staining EM, single-particle 2D class averaging; purified supercomplex 2 sample, 0.27 mg/ml, 0.75% uranyl formate, 120 kV; 822 particles; PSI tetramer models rigidly fitted over the 2D map
[2] = molecular target: Photosystem I (PSI) complex from Anabaena sp. PCC 7120, the monomeric unit of the PSI oligomers (Anabaena sp. PCC 7120 (endogenous)) (UniProt P58576); assay: negative staining EM, single-particle 2D class averaging; purified supercomplex 1 sample, 0.19 mg/ml, 0.75% uranyl formate, 120 kV; 2,518 particles; PSI tetramer and dimer models rigidly fitted over the 2D map
[3] = molecular target: Photosystem I (PSI) complex from Anabaena sp. PCC 7120, the monomeric unit of the PSI oligomers (Anabaena sp. PCC 7120 (endogenous)) (UniProt P58576); assay: negative staining EM, single-particle 2D class averaging; purified PSI tetramer sample, 0.15 mg/ml, 0.75% uranyl formate, 120 kV; 359 particles; PSI tetramer structure as reference
[4] = molecular target: Photosystem I (PSI) complex from Anabaena sp. PCC 7120, the monomeric unit of the PSI oligomers (Anabaena sp. PCC 7120 (endogenous)) (UniProt P58576); assay: cryo-EM structure; PSI supercomplex 2 purified by BN-PAGE and re-extraction (buffer A with 0.03% digitonin), about 2.5 mg/ml, fos-choline-8 at 1.0 mM added before blotting; single-particle map at 7.0 Å overall, no symmetry (C1); published PSI dimer (PDB 6K61) and tetramer (PDB 6TCL) models fitted as rigid bodies

Photosystem I (PSI) complex from Anabaena sp. PCC 7120, the monomeric unit of the PSI oligomers (from UniProt P58576 1-752; P58565 1-741; P58564 24-164; P58583 1-86; P58577 1-172; Q8YNB0 1-32)
stoichiometry N [1]: 8
stoichiometry N [2]: 6
stoichiometry N [3]: 4
stoichiometry N [4]: 8
